Results published in patent US20180030144A1 (INNATE PHARMA, published 2018).
Substitutions are numbered along the chain they refer to. In names and notes the source's numbering stands.

T1: recombinant human CD73-His extracellular domain protein (soluble dimer) (human, UniProt P21589 27-547)
T1 construct: Purified as a dimer; also called huCD73; soluble recombinant human CD73
T1 sequence: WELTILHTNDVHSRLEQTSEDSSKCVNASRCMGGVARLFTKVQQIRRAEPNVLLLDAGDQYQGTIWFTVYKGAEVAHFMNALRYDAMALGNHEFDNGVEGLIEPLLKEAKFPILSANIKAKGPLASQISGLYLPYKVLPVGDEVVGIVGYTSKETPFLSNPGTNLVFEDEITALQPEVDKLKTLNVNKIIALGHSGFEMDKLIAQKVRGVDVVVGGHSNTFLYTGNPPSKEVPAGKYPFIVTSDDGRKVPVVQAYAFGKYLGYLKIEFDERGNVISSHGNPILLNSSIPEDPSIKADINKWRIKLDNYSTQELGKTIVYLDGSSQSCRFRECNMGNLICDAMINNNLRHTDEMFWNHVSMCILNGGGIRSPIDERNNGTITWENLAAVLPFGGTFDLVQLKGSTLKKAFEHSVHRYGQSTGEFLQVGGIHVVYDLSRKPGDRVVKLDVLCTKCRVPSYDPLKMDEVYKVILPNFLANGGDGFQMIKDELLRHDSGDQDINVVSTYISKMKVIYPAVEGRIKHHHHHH

T2: human CD73 expressed at the cell surface (human, UniProt P21589 27-549)
T2 construct: GPI-anchored dimer on cells; also called huCD73; cellular CD73
T2 sequence: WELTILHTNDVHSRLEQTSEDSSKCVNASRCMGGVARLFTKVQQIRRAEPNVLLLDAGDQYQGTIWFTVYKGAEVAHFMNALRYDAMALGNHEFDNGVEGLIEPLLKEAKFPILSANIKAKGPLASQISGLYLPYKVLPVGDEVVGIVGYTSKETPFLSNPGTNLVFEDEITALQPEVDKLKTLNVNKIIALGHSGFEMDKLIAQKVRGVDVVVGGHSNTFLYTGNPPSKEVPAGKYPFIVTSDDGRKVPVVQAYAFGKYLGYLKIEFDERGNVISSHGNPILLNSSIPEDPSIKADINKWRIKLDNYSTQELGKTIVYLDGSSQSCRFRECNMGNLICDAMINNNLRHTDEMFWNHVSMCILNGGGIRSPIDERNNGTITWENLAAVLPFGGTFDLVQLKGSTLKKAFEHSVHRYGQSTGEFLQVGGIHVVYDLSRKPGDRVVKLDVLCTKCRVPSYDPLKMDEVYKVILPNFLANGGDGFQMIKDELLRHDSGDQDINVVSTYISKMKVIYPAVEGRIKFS

B1: antibody 11E1 (antibody, human IgG1, V domains shown)
VH: EIQLQQSGPELVKPGASVKVSCKASGYAFTSYNMYWVKQSHGKSLEWIGYIDPYNGGTSYNQKFKGKATLTVDKSSSTAYMHLNSLTSEDSAVYYCARGYGNYKAWFAYWGQGTLVTVSA
VL: DAVMTQTPKFLLVSAGDRVTITCKASQSVTNDVAWYQQKPGQSPKLLIYYASNRYTGVPDRFTGSGYGTDFTFTISTVQAEDLAVYFCQQDYSSLTFGAGTKLELK
notes: Produced as chimeric human IgG1 with heavy chain N297Q (Kabat EU numbering); also called 1E11
B2: antibody 3C12 (antibody, human IgG1, V domains shown)
VH: B1 VH with E1Q, T30A, Y35N, E46D, T58S, Q62L, K63T, S77T
VL: DVVMTQTPKFLLVSAGDRVTITCKASQSVSNDVAWYQQKPGQSPKLLIYYASTRYTGVPDRFTGSGYGTDFTFTISTVQAEDLAVYFCQQDYSSLTFGAGTKLELKR
notes: Produced as chimeric human IgG1 with heavy chain N297Q (Kabat EU numbering); RTVAAP)
B3: antibody 6E1 (antibody, human IgG1, V domains shown)
VH: B1 VH with I2F, S44R, T58S, S85N, G101N
VL: B1 VL with D1S, A2I, V78M
notes: Produced as chimeric human IgG1 with heavy chain N297Q (Kabat EU numbering)

Legend:
[1] = target: T1, recombinant human CD73-His …; test: ELISA, plate-coated recombinant human CD73
Experimental: 5 μg/ml of recombinant human CD73 protein (IPH, isoform E6) was coated on MaxiSorp ELISA plates (Nunc) in PBS, overnight at 4° C. Plates were washed 5 times in washing buffer (PBS, 0.05% Tween20) and unspecific sites were saturated by adding 200 μl/w TBS starting block buffer (Thermo Ficher). Dose-range of anti-CD73 antibodies were incubated for 2 h at 37° C. Plates were washed 5 times in washing buffer and HRP-coupled goat anti-human or goat anti-mouse IgG Fc fragment secondary antibody (Bethyl, 1/50000) was added for 1 hr at RT to detect bound anti-CD73 antibodies. […] The enzymatic reaction was stopped by adding HCl 1M and O.D. was measured at 450 nm. Optical density vs. anti-CD73 Ab concentration was plotted on graphs and EC50 is calculated using GraphPad Prism software.

[2] = target: T2, human CD73 expressed at the cell surface; test: flow cytometry titration on MDA-MB-231 cells (endogenous CD73), median of fluorescence
Experimental: MDA-MB-231 cells are available from ATCC (reference HTB-26). 10⁵ cells resuspended in PBS/0.2% BSA/0.02% NaN3 (named “staining buffer”) are distributed into round bottom 96W-microplates. Dose-range of anti-CD73 antibodies was added to the plates and cells are incubated for 45 min at 4° C. Cells were washed three times in staining buffer by spinning plates at 400 g for 3 min at 4° C. PE-coupled goat anti-mouse or goat anti-human IgG Fc fragment secondary antibodies (Beckman Coulter) diluted in staining buffer were added to the cells and plates are incubated for 30 additional minutes at 4° C. Cells were washed three times as described above and analyzed on an Accury C6 flow cytometer equipped with an HTFC plate reader.
Median of fluorescence vs. antibodies concentration was plotted on graphs and EC50 is calculated using Graph Pad Prism program.

[3] = target: T2, human CD73 expressed at the cell surface; test: flow cytometry titration on HEK293T cells transfected with wild type human CD73, mean of fluorescence

Row | Binder | EC50 [1] [µg/mL] | EC50 (read off the curve) [2] [µg/mL] | EC50 (read off the curve) [3] [µg/mL]
1 | B1 | 0.012 | ~0.1 | 
2 | B2 | 0.014 | ~0.07 | ~0.2
3 | B3 | 0.014 | ~0.1 | 
